How the values were obtained:
[1] = molecular target: T1, RSV F protein of subtype A (strain A2) on recombinant mKate-RSV (respiratory syncytial virus subtype A …, UniProt P03420 26-574); assay: cell-based or functional assay
[2] = molecular target: RSV F protein of subtype B (18537) on recombinant mKate-RSV (respiratory syncytial virus subtype B …, UniProt P13843 26-574); assay: cell-based or functional assay
[3] = molecular target: T2, RSV F ectodomain stabilized in the postfusion conformation (F ΔFP), subtype A (respiratory syncytial virus subtype A, UniProt P03420 26-109; P03420 147-524); assay: BLI (Octet), IgG on AHQ sensor, 100 nM antigen
T2 construct: extracellular domain; Trimer; also called Postfusion subtype A

[4] = molecular target: T3, RSV F ectodomain stabilized in the postfusion conformation (F ΔFP), subtype B (respiratory syncytial virus subtype B, UniProt P13843 26-109; P13843 147-524); assay: BLI (Octet), IgG on AHQ sensor, 100 nM antigen
T3 construct: extracellular domain; Trimer; also called Postfusion subtype B

[5] = molecular target: T1, RSV F protein of subtype A (strain A2) …; assay: cell-based or functional assay; remark: listed apart in the source
[6] = molecular target: human metapneumovirus (HMPV) F protein on GFP-expressing hMPV recombinant virus (NL/1/00, A1 sublineage) (human metapneumovirus); assay: cell-based or functional assay

B1: ADI-18990 (antibody, V domains shown)
VH: QVQLQESGPGRVKPSQTLSLTCTVSGVSVTINDYYWTWLRQSPGKGLEWIGNIYNSGSTYQNPSLQSRVTMSVDTAKNHFSLKLTSVTAADTAVYYCARDLGTANNYYFGMDVWGLGTTVTVSS
VL: DIVLTQSPATLSLSPGERATLSCRASQSVSTYLAWYQQKPGQAPRLLIYNGSNRVTGTPARFSGSGSGTDFTLTISSVEPEDFAVYYCQQRSNWPPYTFGQGTKVEIK
notes: full-length IgG
Neut IC50 subtype A [1]: 0.58 µg/mL
Neut IC50 subtype B [2]: 0.845 µg/mL
Kd [3]: 0.294 nM
Kd [4]: 0.252 nM

B2: ADI-19014 (antibody, V domains shown)
VH: EVQLVESGPRLVKPSQTLSLTCTVYGGSISGGQNYYSWVRQPPGKGLEWIGYIFSSGTTYYKPSLKSRISISFDTSKNQFSLNLASVTAADTAVYFCARSADIDIVWGSSLYMPLWGQGTLVTVSS
VL: EIVLTQSPGTLSLSPGQRATLSCRATHIVSNSYLAWYQQKPGQAPRLLIHGVSIRATGIPDRFSGSGSGTDFTLTISRLEPEDFAVYFCQQYGTSPWTFGQGTKLEIK
notes: full-length IgG; also called Antibody Number 362
Neut IC50 subtype A [1]: 1.75 µg/mL
Neut IC50 subtype B [2]: > 10 µg/mL
Kd [4]: 0.277 nM

B3: ADI-19013 (antibody, V domains shown)
VH: QVQLVQSGAEVKKPGESLKISCKGSGYSFSSYWIGWVRQMPGKGLEWMGIIYPGDSDTRYSPSLQGQVTISGDKSISTAFLQWSSLKASDTAMYYCARPMTTQEGFDLWGQGTMVTVSS
VL: DIRLTQSPSSVSASVGDRVTITCRASQGISDWLAWYQQKPGKAPKLLIYAASSLQSGVPSRFSGSGSGTDFTLTISSLQPEDFATYYCQQTNSFLPLTFGGGTKVDIK
notes: full-length IgG; also called Antibody Number 361
Neut IC50 subtype A [1]: 9.5 µg/mL
Neut IC50 subtype B [2]: > 10 µg/mL
Kd [4]: 0.583 nM

B4: ADI-18982 (antibody, V domains shown)
VH: QVQLVQSGAEVKKPGASVKVSCKASGYIFTSYGVSWVRQAPGQGLKWMGWISGYNGNTNYDQKLQGRVTMTTDTSTSTAYMELRSLTSDDTAVYYCARDSFSETGTGFPDFWGQGTLVTVSS
VL: DIQMTQSPLSLPVTLGQPASISCRSSQSLEYSDGNTYLNWFQQRPGQSPRRLIYKVSNRDSGVPDRFSGSGSGTDFTLKISRVEAEDVGVYYCMQATHRPRTFGQGTKLEIK
notes: full-length IgG; also called Antibody Number 330
Neut IC50 subtype A [1]: 0.018 µg/mL
Neut IC50 subtype B [2]: 0.053 µg/mL
Kd [3]: 0.765 nM
Kd [4]: 0.747 nM

B5: ADI-18998 (antibody, V domains shown)
VH: EVQLLESGPGLVKPSQTLSLTCTVSGGSINSIDYYWSWIRQPPGKGLEWIGYIYHSGSTHYRPSLKSRVTISLDKAKNEFSLSLTSVTAADTAVYFCASGPVGMATSNWFDPWGQGTLVTVSS
VL: QPVLTQPPSVSVTPGETARLPCEGDIVVTNSVHWYQQKPGQAPVLVVYYDSDRASGIPERFSGSNSGNTATLSISRVEAGDEADYYCQVWDSSTDHHVVFGGGTKLTVL
notes: full-length IgG; also called Antibody Number 346
Neut IC50 subtype A [1]: 0.055 µg/mL
Neut IC50 subtype B [2]: 0.458 µg/mL
Kd [3]: 12.4 nM

B6: ADI-18992 (antibody, V domains shown)
VH: QVQLVQSGAEVKKPGASVKVSCKASGYIFTGYFIHWVRQAPGQGLEWMGVINPRGGSTSYAQKFQGRVAVSRDTSTTTVYMELNSLRSEDTAVYYCARAPSHDEWVAISRNNDVVGFDAWGQGTLVTVSS
VL: QSVLTQPPSVSGAPGQRVTISCTGGSSNIGADYDVHWYQQPPGTAPKLLIFANNNRPSGVPGRFSGSKSGTSASLAITGLQAEDEADYYCQSYDSSLSAWVFGGGTKLTVL
notes: full-length IgG; also called Antibody Number 340
Neut IC50 subtype A [1]: 2.55 µg/mL
Neut IC50 subtype B [2]: 5.69 µg/mL
RSV-A2 IC50 [5]: 2.5 µg/mL
HMPV-A1 IC50 [6]: 6.1 µg/mL
Kd [4]: 0.907 nM

B7: ADI-19007 (antibody, V domains shown)
VH: QVQLVQSGGGLVQPGGSLRLSCAASGFTFSQSPMSWVRQAPGKGLEWVSGISTGGTNTYYADSVKGRFTISRDNSKNTLYLQMTSLRVGDTAVYYCAKESLDFGSGSYNWFDTWGQGTLVTVSS
VL: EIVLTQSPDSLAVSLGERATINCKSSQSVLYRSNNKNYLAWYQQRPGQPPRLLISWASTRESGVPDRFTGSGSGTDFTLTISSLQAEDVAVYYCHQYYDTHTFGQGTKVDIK
notes: full-length IgG
Neut IC50 subtype A [1]: 0.208 µg/mL
Neut IC50 subtype B [2]: 0.37 µg/mL
Kd [3]: 0.969 nM
Kd [4]: 0.457 nM

B8: ADI-18999 (antibody, V domains shown)
VH: QVQLVQSGAEVKKPGSSVKVSCKASGGRFSSDAISWVRQAPGQGLEWMGGIIPIRGTPTYAQKFQGRVTIIADESTTTSYMEMSSLRSEDTAVYYCARPNYDILTGYNDAFDIWGQGTMVTVSS
VL: QSVLTQPRSVSGSPGQSVTISCTGTSSDVGGYNYVSWYQQHPGKVPRLMIYDVSKRPSGAPDRFSGSKSGNTASLTISGLQAEDEADYYCCSYAGGLYVFGTGTKLTVL
notes: full-length IgG
Neut IC50 subtype A [1]: 1.8 µg/mL
Neut IC50 subtype B [2]: 6.46 µg/mL
Kd [3]: 0.167 nM
Kd [4]: 0.141 nM

B9: ADI-19000 (antibody, V domains shown)
VH: EVQLVESGAEVKKPGASVKVSCKASGYTFTTYDINWVRQATGRGLEWMGWMTPDSGSTGYPQNFQGRVTMTRNTSISTAYMELSNLRSEDTAVYYCVQMDHCRSTSCSEGNWFDTWGQGTLVTVSS
VL: QPGLTQPPSVSAAPRQRVTISCSGSSSNIGTNAVNWYQQLPGKAPKLLIYSDNLMPSGVSARFSGSKSGTSASLAISGLQSEDEADYYCAAWDDSLNVWVFGGGTKLTVL
notes: full-length IgG; also called Antibody Number 348
Neut IC50 subtype A [1]: 0.037 µg/mL
Neut IC50 subtype B [2]: 0.129 µg/mL
Kd [3]: 0.175 nM
Kd [4]: 0.128 nM

B10: ADI-18995 (antibody, V domains shown)
VH: EVQLVESGPGLVKPSETLSLSCIVSGGSITSGDYYWSWLRQSPGKGLEWIGYIYHSGATFYTPSLRSRVTISTDTSKNQFSLRLSSVTAADTAVYYCASGPVGMATSNWFDPWGQGTLVTVSS
VL: SYELTQPPSVSVAPGKTATITCGGDIIRTNSVNWYQQKPGQAPLLLIYYDSDRPSGIPERFSASNSGNTATLTISRVEAGDEADYYCQVWDSGTDYHVVFGGGTKLTVQ
notes: full-length IgG; also called Antibody Number 343
Neut IC50 subtype A [1]: 0.043 µg/mL
Neut IC50 subtype B [2]: 0.125 µg/mL
Kd [3]: 12.3 nM
